Test results reported in article PMC4786922.

Tested on: S1 zinc finger array (six-finger designed ZF) (artificial (designed))
Experiment: EMSA
Details: EMSA: ZBA buffer (composition not given), 0.05% NP-40, 0.1 mg/ml BSA, 10% glycerol, 35-75 pM target, 1.5 h at room temperature; pH not given

With “CCTCTTCGCTATTACGCCAGCCATGCGTAGGGAGCCGCGGAACGTTCGATCGTACTCGAGTCAGGGTG (double strand) [S1 target site EMSA probe]” the Kd was 5 nM.
